Target: the molecule itself
Test: sucrose velocity gradient sedimentation

Row | Protein | stoichiometry N
1 | wild-type alcohol oxidase of Pichia pastoris (AOX-WT) (enzyme, P. pastoris, UniProt F2QY27 1-663, looked up) MAIPEEFDILVLGGGSSGSCIAGRLANLDHSLKVGLIEAGENNLNNPWVYLPGIYPRNMKLDSKTASFYTSNPSPHLNGRRAIVPCANVLGGGSSINFMMYTRGSASDYDDFQAEGWKTKDLLPLMKKTETYQRACNNPDIHGFEGPIKVSFGNYTYPVCQDFLRASESQGIPYVDDLEDLVTAHGAEHWLKWINRDTGRRSDSAHAFVHSTMRNHDNLYLICNTKVDKIIVEDGRAAAVRTVPSKPLNPKKPSHKIYRARKQIVLSCGTISSPLVLQRSGFGDPIKLRAAGVKPLVNLPGVGRNFQDHYCFFSPYRIKPQYESFDDFVRGDAEIQKRVFDQWYANGTGPLATNGIEAGVKIRPTPEELSQMDESFQEGYREYFEDKPDKPVMHYSIIAGFFGDHTKIPPGKYMTMFHFLEYPFSRGSIHITSPDPYAAPDFDPGFMNDERDMAPMVWAYKKSRETARRMDHFAGEVTSHHPLFPYSSEARALEMDLETSNAYGGPLNLSAGLAHGSWTQPLKKPTAKNEGHVTSNQVELHPDIEYDEEDDKAIENYIREHTETTWHCLGTCSIGPREGSKIVKWGGVLDHRSNVYGVKGLKVGDLSVCPDNVGCNTYTTALLIGEKTATLVGEDLGYSGEALDMTVPQFKLGTYEKTGLARF | 8
2 | AOX with the COOH-terminal LARF replaced by RSC (AOX–RSC, pHWO41) (enzyme, P. pastoris) MAIPEEFDILVLGGGSSGSCIAGRLANLDHSLKVGLIEAGENNLNNPWVYLPGIYPRNMKLDSKTASFYTSNPSPHLNGRRAIVPCANVLGGGSSINFMMYTRGSASDYDDFQAEGWKTKDLLPLMKKTETYQRACNNPDIHGFEGPIKVSFGNYTYPVCQDFLRASESQGIPYVDDLEDLVTAHGAEHWLKWINRDTGRRSDSAHAFVHSTMRNHDNLYLICNTKVDKIIVEDGRAAAVRTVPSKPLNPKKPSHKIYRARKQIVLSCGTISSPLVLQRSGFGDPIKLRAAGVKPLVNLPGVGRNFQDHYCFFSPYRIKPQYESFDDFVRGDAEIQKRVFDQWYANGTGPLATNGIEAGVKIRPTPEELSQMDESFQEGYREYFEDKPDKPVMHYSIIAGFFGDHTKIPPGKYMTMFHFLEYPFSRGSIHITSPDPYAAPDFDPGFMNDERDMAPMVWAYKKSRETARRMDHFAGEVTSHHPLFPYSSEARALEMDLETSNAYGGPLNLSAGLAHGSWTQPLKKPTAKNEGHVTSNQVELHPDIEYDEEDDKAIENYIREHTETTWHCLGTCSIGPREGSKIVKWGGVLDHRSNVYGVKGLKVGDLSVCPDNVGCNTYTTALLIGEKTATLVGEDLGYSGEALDMTVPQFKLGTYEKTGRSC | 8

Source: article PMC2132610 (The Journal of Cell Biology, 1997)
